This passage reports Kd results from the Immune Epitope Database (IEDB).

In assay [1] the target is HLA-A*29:02. The assay can be described thus: IEDB peptide-MHC binding, purified MHC/competitive/fluorescence; filed as Kd, often an IC50 or EC50 that approximates it; ≥ and ≤ were set here for values at or beyond the usual limits of such assays.
Assay [2] concerns the target HLA-A*01:01. The description is as above. The settings on record: source organism: Homo sapiens.
Assay [3] deals with HLA-A*02:01. The description is as above.
For assay [4], the target named is HLA-C*06:02. Briefly: IEDB peptide-MHC binding, purified MHC/direct/fluorescence; filed as Kd, often an IC50 or EC50 that approximates it; ≥ and ≤ were set here for values at or beyond the usual limits of such assays.
The target of assay [5] is HLA-B*27:03. The assay can be described thus: IEDB peptide-MHC binding, purified MHC/competitive/fluorescence; filed as Kd, often an IC50 or EC50 that approximates it; ≥ and ≤ were set here for values at or beyond the usual limits of such assays.
For assay [6], the target named is HLA-B*18:01. Described as above.
The target in assay [7] is HLA-A*26:01. Described as above.
The target of assay [8] is HLA-B*39:01. Described as above.
Assay [9] addresses HLA-B*46:01. The description is as above.
The target of assay [10] is HLA-B*51:01. Described as above.
Assay [11] deals with HLA-B*57:01. The description is as above.
The target of assay [12] is HLA-A*03:01. The assay can be described thus: IEDB peptide-MHC binding, purified MHC/direct/fluorescence; filed as Kd, often an IC50 or EC50 that approximates it; ≥ and ≤ were set here for values at or beyond the usual limits of such assays.
Assay [13] concerns the target HLA-A*02:01. Described as above.
The target in assay [14] is HLA-A*68:02. The description is as above. The following applies: source organism: Limestone Canyon virus.
For assay [15], the target named is HLA-B*15:17. Briefly: IEDB peptide-MHC binding, purified MHC/competitive/fluorescence; filed as Kd, often an IC50 or EC50 that approximates it; ≥ and ≤ were set here for values at or beyond the usual limits of such assays.
Assay [16] concerns the target HLA-A*68:02. The assay is described as above. The following applies: source organism: Escherichia coli HS.
For assay [17], the target named is HLA-B*27:05. The assay can be described thus: IEDB peptide-MHC binding, purified MHC/direct/fluorescence; filed as Kd, often an IC50 or EC50 that approximates it; ≥ and ≤ were set here for values at or beyond the usual limits of such assays.
The target of assay [18] is HLA-B*58:01. The assay is described as above.
Assay [19] addresses HLA-B*48:01. The assay is described as above. The following applies: source organism: Escherichia coli O157:H7.
For assay [20], the target named is HLA-B*18:01. The description is as above. The settings on record: source organism: Escherichia coli O157:H7.
The target of assay [21] is HLA-A*31:01. The description is as above.
In assay [22] the target is HLA-B*40:01. The assay is described as above.
Assay [23] concerns the target HLA-A*69:01. The assay is described as above.
The target of assay [24] is HLA-B*44:02. Described as above.
Assay [25] addresses HLA-A*11:01. Described as above.
Assay [26] addresses HLA-A*01:01. Described as above.
In assay [27] the target is HLA-B*57:01. The assay is described as above. The settings on record: source organism: Escherichia coli O157:H7.
In assay [28] the target is HLA-B*07:02. The description is as above.
The target in assay [29] is HLA-A*26:01. The assay is described as above.
Assay [30] deals with HLA-B*15:01. The assay is described as above. The settings on record: source organism: Alkhumra hemorrhagic fever virus.
Assay [31] has as its target HLA-A*24:03. The description is as above. The settings on record: source organism: Tick-borne encephalitis virus.
Assay [32] has as its target HLA-B*08:01. The description is as above.
For assay [33], the target named is HLA-B*35:01. The assay is described as above.
The target in assay [34] is HLA-A*02:19. The assay can be described thus: IEDB peptide-MHC binding, purified MHC/competitive/fluorescence; filed as Kd, often an IC50 or EC50 that approximates it; ≥ and ≤ were set here for values at or beyond the usual limits of such assays. The settings on record: source organism: Canarypox virus.
Assay [35] deals with HLA-A*03:01. The description is as above. The following applies: source organism: Canarypox virus.
Assay [36] addresses HLA-A*02:12. The description is as above. The following applies: source organism: Haemophilus influenzae.
The mark [37] stands for this setting: source organism: Vaccinia virus Copenhagen.
[38] abbreviates: source organism: Orthohantavirus puumalaense.
Setting [39] is: source organism: Escherichia coli O157:H7.
The mark [40] stands for this setting: source organism: Alkhumra hemorrhagic fever virus.
Setting [41] is: source organism: Tick-borne encephalitis virus.
Where [42] appears, read: source organism: Vibrio cholerae.
[43] abbreviates: source organism: Canarypox virus.
The mark [44] stands for this setting: source organism: Camelpox virus M-96.

Bounds are passed on as bounds.

As for YFEYIEENKY, the dissociation constant (Kd) was ≤ 0.0001 µM in assay [1] (source organism: Homo sapiens) and 1.56 µM in assay [2].

With YLHPKDKYL, the Kd was 0.0125 µM in assay [3] (setting [37]) and 2.08 µM in assay [4] (setting [37]).

FGMPNPEGY registered a Kd in assay [1] (source organism: Desulfuromonas acetoxidans DSM 684) of 0.0231 µM.

IILKALYML: the Kd in [5] (setting [38]), in assay [6] (setting [38]), in assay [7] (setting [38]), in [8] (setting [38]), in [9] (setting [38]) and in assay [10] (setting [38]) was ≥ 20 µM throughout. The Kd was ≥ 20 µM in assay [11] (setting [38]), ≥ 20 µM in assay [12] (source organism: Limestone Canyon virus), 0.0074 µM in assay [13] (setting [38]) and ≥ 20 µM in assay [14].

Consider GEIFGLLGP, for which the equilibrium dissociation constant (Kd) in assay [15] (source organism: Escherichia coli HS) is 1.12 µM; in assay [16], 2.64 µM; in [17] (setting [39]), ≥ 20 µM; in assay [18] (setting [39]), ≥ 20 µM; in assay [19] it was ≥ 20 µM; in [20] it was 0.101 µM. Also, the Kd in [21] (setting [39]) was ≥ 20 µM; in assay [22] (setting [39]) it was 0.019 µM; in [23] (setting [39]) it was ≥ 20 µM; in assay [13] (setting [39]) it was ≥ 20 µM; in assay [24] (setting [39]) it was ≥ 20 µM; in assay [25] (setting [39]), ≥ 20 µM. Also, the Kd in [26] (setting [39]), in assay [27] and in assay [28] (setting [39]) was ≥ 20 µM throughout.

Consider WPWNAREDV, for which the Kd in [17] (setting [40]), in assay [18] (setting [40]), in assay [21] (setting [40]), in assay [22] (setting [40]), in [29] (setting [40]) and in assay [30] was ≥ 20 µM throughout. Further, the Kd in assay [12] (setting [40]) was ≥ 20 µM; in assay [31] it was 5.29 µM; in assay [13] (setting [40]) it was ≥ 20 µM; in assay [24] (setting [40]), ≥ 20 µM; in assay [32] (setting [41]), 7.65 µM; in [26] (setting [40]) it was ≥ 20 µM. In addition, the Kd stood at 0.103 µM in assay [33] (setting [41]) and 0.466 µM in assay [28] (setting [41]).

As for YLNDFAQLL, the Kd in assay [4] (source organism: Mycobacterium tuberculosis str. Haarlem) came to 0.025 µM.

Regarding KEDPGDHIF, the dissociation constant (Kd) in assay [17] (setting [42]) is ≥ 20 µM; in assay [18] (setting [42]), ≥ 20 µM; in assay [21] (setting [42]) it was ≥ 20 µM; in assay [22] (setting [42]), 0.0249 µM; in [29] (setting [42]) it was ≥ 20 µM; in assay [23] (setting [42]) it was ≥ 20 µM. Moreover, the Kd in [12] (setting [42]), in [13] (setting [42]), in [24] (setting [42]), in [32] (setting [42]), in assay [25] (setting [42]) and in assay [26] (setting [42]) was ≥ 20 µM throughout. The values for the Kd in [33] (setting [42]) and in [28] (setting [42]) were 0.224 µM and ≥ 20 µM, respectively.

For YMMDGNECP, the Kd in assay [5] (setting [43]) is ≥ 20 µM; in [15] (setting [43]), ≥ 20 µM; in [1] (setting [43]) it was ≥ 20 µM; in [34] it was 0.2 µM; in [6] (setting [43]), ≥ 20 µM; in assay [7] (setting [43]), ≥ 20 µM. Further, the Kd in assay [35] was ≥ 20 µM; in assay [3] (setting [43]) it was 0.247 µM; in [8] (setting [43]), ≥ 20 µM; in assay [9] (setting [43]), ≥ 20 µM; in [10] (setting [43]), ≥ 20 µM; in assay [11] (setting [43]), ≥ 20 µM.

With WYYDFHFFV, the Kd in assay [4] (source organism: Vaccinia virus WR) was ≥ 20 µM; in assay [23] (setting [44]), 0.27 µM; in assay [13] (setting [44]), 0.391 µM.

Regarding GRYYVLQFV, the Kd in [4] (source organism: Listeria monocytogenes J0161) turned out to be 0.301 µM.

FRYMNSQGL: the Kd in assay [4] (source organism: SARS-CoV1) is 0.002 µM; in [17] (source organism: SARS-CoV1), 0.0513 µM; in assay [22] (source organism: SARS-CoV1) it was ≥ 45.5 µM; in assay [12] (source organism: SARS-CoV1), ≥ 36.3 µM; in assay [32] (source organism: SARS-CoV1) it was 7.93 µM; in [25] (source organism: SARS-CoV1), ≥ 21.9 µM.

In turn, HLGGFVHAC returned an equilibrium dissociation constant (Kd) in [36] of 0.0268 µM.
